In this assay the test system is trypsin. The experiment in a line: Inhibition of trypsin-induced cleavage of fluorescent BODIPY FL casein (EnzChek protease assay kit). The assay is classed as biochemical. The text has this: The procedure of Example 1 was independently repeated using the procyanidin-containing grape seed extract and STI, respectively, at 0.1% concentration. In addition, the procedure of Example 1 was repeated on the five individual monomer units typically found in OPC, at up to three different concentration levels.

B1: Lactoferrin: commonly used antioxidant (protein, UniProt P02788 20-710, looked up)
Lactotransferrin: GRRRSVQWCAVSQPEATKCFQWQRNMRKVRGPPVSCIKRDSPIQCIQAIAENRADAVTLDGGFIYEAGLAPYKLRPVAAEVYGTERQPRTHYYAVAVVKKGGSFQLNELQGLKSCHTGLRRTAGWNVPIGTLRPFLNWTGPPEPIEAAVARFFSASCVPGADKGQFPNLCRLCAGTGENKCAFSSQEPYFSYSGAFKCLRDGAGDVAFIRESTVFEDLSDEAERDEYELLCPDNTRKPVDKFKDCHLARVPSHAVVARSVNGKEDAIWNLLRQAQEKFGKDKSPKFQLFGSPSGQKDLLFKDSAIGFSRVPPRIDSGLYLGSGYFTAIQNLRKSEEEVAARRARVVWCAVGEQELRKCNQWSGLSEGSVTCSSASTTEDCIALVLKGEADAMSLDGGYVYTAGKCGLVPVLAENYKSQQSSDPDPNCVDRPVEGYLAVAVVRRSDTSLTWNSVKGKKSCHTAVDRTAGWNIPMGLLFNQTGSCKFDEYFSQSCAPGSDPRSNLCALCIGDEQGENKCVPNSNERYYGYTGAFRCLAENAGDVAFVKDVTVLQNTDGNNNEAWAKDLKLADFALLCLDGKRKPVTEARSCHLAMAPNHAVVSRMDKVERLKQVLLHQQAKFGRNGSDCPDKFCLFQSETKNLLFNDNTECLARLHGKTTYEKYLGPQYVAGITNLKKCSTSPLLEACEFLRK
Consider B1, for which the “trypsin inhibition activity (in words)” value (at concentrations up to 0.1%) is “no trypsin inhibition activity”. Also, the “% trypsin inhibition” value was −2% (concentration 0.001 % (w/w)), −4% (concentration 0.01 % (w/w)) and 0% (concentration 0.1 % (w/w)).

B2: STI: pure serine protease inhibitor (soybean trypsin inhibitor) from Sigma, used as positive control (protein, UniProt P01070 25-205, looked up)
Trypsin inhibitor A: DFVLDNEGNPLENGGTYYILSDITAFGGIRAAPTGNERCPLTVVQSRNELDKGIGTIISSPYRIRFIAEGHPLSLKFDSFAVIMLCVGIPTEWSVVEDLPEGPAVKIGENKDAMDGWFRLERVSDDEFNNYKLVFCPQQAEDDKCGDIGISIDHDDGTRRLVVSKNKPLVVQFQKLDKESL
In the case of B2, the “% trypsin inhibition” value was determined as 89% (Table 4, concentration (w/w) 0.1 %); 17% (concentration 0.0005 % (w/w)); 30% (concentration 0.001 % (w/w)); 44% (concentration 0.0025 % (w/w)); 55% (concentration 0.005 % (w/w)); 74% (concentration 0.01 % (w/w)). In addition, the “% trypsin inhibition” value was 85% (concentration 0.025 % (w/w)), 87% (concentration 0.05 % (w/w)) and 63% (concentration 0.075 % (w/w)).

For the origin of these results see patent publication US20050175719A1, “Procyanidins for treatment and prevention of enzymatic irritation to the skin” (priority 2004, published 2005).
